Experimental data as given in article PMC9811221 (2022).

molecular target: PD-L1-Fc fusion protein (Invitrogen) (human, UniProt Q9NZQ7 19-238); assay: BLI
Sequence (Q9NZQ7 19-238): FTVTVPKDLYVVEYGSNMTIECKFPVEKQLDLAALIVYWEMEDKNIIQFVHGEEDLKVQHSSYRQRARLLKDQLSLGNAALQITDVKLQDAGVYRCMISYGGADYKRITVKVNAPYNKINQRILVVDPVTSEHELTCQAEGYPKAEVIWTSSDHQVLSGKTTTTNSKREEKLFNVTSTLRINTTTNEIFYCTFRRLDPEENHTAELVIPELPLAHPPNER

Binder	Kd
VHH10 (VHH) VHH: EVQLVESGGGLVQAGDSLRLSCAASGRAFSGYAMAWFRQAPEKEREFVAAITWRGGTPYYAVRAKGRFTISRDSAKNTAYLEVNSLKPEDTATYYCAAPSLQVATMDVKDYAYWGQGTLVTVSS	190 nM
VHH13 (VHH) VHH: EVQLVESGGGLVQPGGSLRLSCAASGSTFSINAMGWYRQAPGKQRELVAAISSGGSTNYADSVKGRFTISRDNAKNTVYLQMNSLKPEDTAVYYCNTINIGTFISLGGSPLGSWGQGTQVTVSS	1300 nM
VHH20 (VHH) VHH: EVQLVESGGGSVQAGGSLRLSCVASGIAFSESPMAWYRQAPGRQREFVADVSADNKPYYRDTLKGRFTISRDNDKNSVYLQMNFLQPEDTAVYYCNALLLEAGTIKNYWGQGTQVTVSS	340 nM
VHH21 (VHH) VHH: EVQLVESGGGLVQTGGSLRLSCAASGRTFDSYFMGWFRQAPGKEREFVAAISGSGSLTSYEDGVKGRFTISRDNAKNTVSLQMTNLKPEDTAVYYCASCLSCAFINGRQVDSRYYNYWGQGTQVTVSS	5100 nM
VHH17 (VHH) VHH: EVQLVESGGGLVQAGGSLRLSCAASGRTFSAYAMGWFRQAPGKERELVAGISWSGGMTYYADSVKGRFTISRDNAKNMVYLQMNSLKAEDTAVYYCAGGFSAVVPDHPDEYHYWGQGTQVTVSS	330 nM
VHH22 (VHH) VHH: EVQLVESGGGLVQAGGSLKLSCAASGRTFSGNTMGWFRQAPGKERELVTVVSSGGSTYYSDSVKGRFTISRDNALNTVYLQMNSLKPEDTAVYYCAAASLISGLTTTRRLFDYWGQGTQVTVSS	2700 nM
VHH19 (VHH) VHH: EVQLVESGGGSVQAGASLRLSCAASGFPFSHYAIGWFRQAPGKEREFVTSIDRSGINTYYADSVKGRFTISRDNAKNAVSLQMNSLKPDDTAVYYCAAGPRLVTSPELYPYWGQGTQVTVSS	1600 nM

More lines, in order of falling Kd, values ahead:

Kd	Binder
2200 nM	VHH2 (VHH) VHH: QVQLVESGGGSVQPGGSLRLSCAASGSIVGHAVQAWYRQAPGKQRDLVAQLFDNGKTNIADSVKGRFTISGDNAKNTFYLQMNNLKPEDTAIYYCAILILPSMGVPPNIYEGQGTQVTVSS
720 nM	VHH18 (VHH) VHH: EVQLVESGGGWVQTGGSLRLSCAASGSTFDIKRMAWYRQAPGKEREFVADIWSEGSTHYADSVKGRFTISRDSAKNTMYLYMNSLKPEDTAVYYCNVEYVLRTYWGQGTQVTVSS
290 nM	VHH14 (VHH) VHH: EVQLVESGGGLVQAGDSLRLSCTASARTFIKYAMGWFRQAPGKEREFVAAISWSGSRTTYADSVKGRFTISRDNDKNTVYLQMNTLEPEDTAIYYCAKAKGGYHSSQYDYDYWGQGTQVTVSS
180 nM	VHH16 (VHH) VHH: QVQLVESGGGWVQTGGSLRLSCAASGSTFDIKRMAWYRQAPGKEREFVADIWSEGSTHYADSVKGRFTISRDSAKNTMYLQMNSLKPEDTAAYYCNVGNTWGQGTQVTVSS
